Test [1] concerns the target T1, TpoR-IL6ST chimeric receptor on HEK293T SIE-bla reporter cells (clone CR2-9) (human, UniProt P40238 26-527; P40189 651-918, limits assumed).
T1 sequence (looked up): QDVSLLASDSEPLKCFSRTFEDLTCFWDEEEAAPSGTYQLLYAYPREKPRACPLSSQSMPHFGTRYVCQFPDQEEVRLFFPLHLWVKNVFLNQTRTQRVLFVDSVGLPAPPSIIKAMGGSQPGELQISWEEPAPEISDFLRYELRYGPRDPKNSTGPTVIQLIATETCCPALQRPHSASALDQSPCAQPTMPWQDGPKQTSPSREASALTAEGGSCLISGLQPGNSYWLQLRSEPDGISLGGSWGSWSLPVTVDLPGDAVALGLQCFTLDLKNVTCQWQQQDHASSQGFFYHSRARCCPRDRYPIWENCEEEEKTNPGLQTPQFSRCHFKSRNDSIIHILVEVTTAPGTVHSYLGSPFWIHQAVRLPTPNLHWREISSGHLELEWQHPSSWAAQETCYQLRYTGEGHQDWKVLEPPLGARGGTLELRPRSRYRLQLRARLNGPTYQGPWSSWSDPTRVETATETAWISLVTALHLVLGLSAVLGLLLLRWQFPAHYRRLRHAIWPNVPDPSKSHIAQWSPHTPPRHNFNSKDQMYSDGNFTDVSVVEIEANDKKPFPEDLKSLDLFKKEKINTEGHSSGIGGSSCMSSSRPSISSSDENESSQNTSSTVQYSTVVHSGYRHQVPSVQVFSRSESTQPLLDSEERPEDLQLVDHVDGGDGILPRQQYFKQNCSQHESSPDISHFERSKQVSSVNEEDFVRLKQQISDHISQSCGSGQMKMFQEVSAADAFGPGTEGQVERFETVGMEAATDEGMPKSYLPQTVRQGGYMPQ
Nature of the test: cell-based or functional assay.

The target of test [2] is T2, wild-type human TpoR on Ba/F3-hMpl cells (human, UniProt P40238 26-635).
T2 sequence (looked up): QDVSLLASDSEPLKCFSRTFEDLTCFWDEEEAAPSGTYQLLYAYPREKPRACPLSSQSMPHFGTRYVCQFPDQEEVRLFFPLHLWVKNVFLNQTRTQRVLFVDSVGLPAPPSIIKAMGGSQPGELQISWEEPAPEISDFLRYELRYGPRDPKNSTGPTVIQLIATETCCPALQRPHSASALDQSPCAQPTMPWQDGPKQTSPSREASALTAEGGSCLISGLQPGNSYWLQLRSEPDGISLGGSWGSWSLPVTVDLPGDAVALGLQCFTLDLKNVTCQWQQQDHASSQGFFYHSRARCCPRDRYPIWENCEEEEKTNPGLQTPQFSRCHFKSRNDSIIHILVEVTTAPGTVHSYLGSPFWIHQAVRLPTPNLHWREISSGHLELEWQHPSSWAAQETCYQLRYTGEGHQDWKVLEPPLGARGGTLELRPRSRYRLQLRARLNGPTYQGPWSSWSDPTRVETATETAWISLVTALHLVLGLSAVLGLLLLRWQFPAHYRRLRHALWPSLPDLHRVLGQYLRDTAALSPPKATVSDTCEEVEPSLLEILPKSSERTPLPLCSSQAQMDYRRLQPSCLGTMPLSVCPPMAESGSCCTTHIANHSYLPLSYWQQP
Nature of the test: cell-based or functional assay.

In test [3] the target is T3, extracellular domain of hEpoR-his tag (human, UniProt P19235 25-250).
T3 construct: extracellular domain; also called EpoR ECD-his tag monomer protein; His-tagged monomeric EpoR; not shown: His tag
T3 sequence (looked up): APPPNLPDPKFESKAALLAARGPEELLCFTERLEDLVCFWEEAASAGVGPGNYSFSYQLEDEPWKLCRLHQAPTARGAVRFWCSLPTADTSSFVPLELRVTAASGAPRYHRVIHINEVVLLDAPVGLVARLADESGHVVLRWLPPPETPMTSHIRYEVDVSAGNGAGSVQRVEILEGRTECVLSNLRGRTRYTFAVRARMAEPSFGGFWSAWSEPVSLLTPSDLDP
Kind of test: pull-down: antibody mixed with hEpoR extracellular domain-his tag, captured on His-tag Dynabeads, bound antibody detected with anti-Fc:HRP (OD405nm); control is beads without EpoR. On the procedure: The single antibodies V-1 and V-3 and the bispecific antibody V-1/V-3 (BsAb) that were generated using “Knob-into-ole” technology were purified from HEK293F cells. (A) The purified proteins were analyzed using 7% Tris-Acetate gels with TA running buffer. (B) Antibody binding to the EpoR was tested by a “pull down” experiment. Different antibodies were mixed with the extracellular domain of hEpoR-his tag. The complexes were captured with His-tag Dynabeads and bound antibodies were detected with an anti-Fc:HRP antibody.

The target in test [4] is T3, extracellular domain of hEpoR-his tag. Nature of the test: BLI (Octet Red), scFv-Fc captured on anti-human IgG sensors, EpoR ectodomain monomer titrated, 1:1 model; V-1; not competed by EPO. Here is the method: (§1) Kinetic characterization using bio-layer interferometry (BLI). Experiments were performed using the Octet Red (Fortebio Inc.). The scFv Fc fusion proteins were captured with anti-Human IgG Capture (AHC) Biosensors (kinetics grade Cat# 18-5060). A titration series of the purified EpoR ectodomain monomer protein was measured against the immobilized scFv Fc in the association/dissociation cycle. The data set was fit to a 1:1 binding model to determine ka, kd and Kd.
(§2) Thus, both EPO and the bispecific antibody achieve the obligatory asymmetric binding to the EpoR that is necessary for full agonist activity, albeit in different ways. In the case of EPO, asymmetry is achieved by the use of two distinct interfaces (site 1 and site 2) that bind with different affinities to a single site in the homodimeric EpoR (Watowich, J. Invest. Med. 59:1067, 2011). By contrast, the heterodimeric bispecific antibody achieves asymmetry by using its two different binding specifies to interact with different sites on the EpoR (FIG. 6).
Background: In BLI a coated tip is dipped into the sample, and binding shifts an interference pattern.

Test [5] shares this target. Nature of the test: BLI (Octet Red), scFv-Fc captured on anti-human IgG sensors, EpoR ectodomain monomer titrated, 1:1 model; V-3; competed by EPO. Here is the method:
as §1, §2

As usually defined, the Kd is a measure of binding affinity in units of concentration. A higher Kd goes with lower affinity.

B1: 3D9 TpoR agonist antibody (Fc fusion, not shown: a dimerising Fc or GST)
scFv: MAQVQLVQSGAEVRKVGSSVKVSCKASRDTFNTYGISWVRQAPGQGLEWMGGIIPIFGTADYAQKFRGRVTITADESTSTAYMELSSLRSEDTAVYYCARDRKLGGSDYWGQGTLVTVSSGGGGSGGGGSGGGGSDIVMTQSPSSVSASVGDKVTITCRASQGLGRWLAWYQQEPGKAPKLLIYAASTLQRGVPSRFSGSGSGTDFTLTISSLQPEDFATYYCQQSNSFPWTFGQGTKLEIKR
Regarding B1, the “EC50, short-term fluorescence (FRET beta-lactamase) reporter assay” value in test [1] is ~0.01 nM. In addition, the “EC50, long-term proliferation assay (MTS) of Ba/F3-hMPL cells” value in test [2] was determined as 0.005 nM.

B2: heterodimeric bispecific antibody V-1/V-3 (bispecific antibody, V domains shown)
VH 1: MAQVQLVQSGAEVKKPGSSVKVSCKASGGTFSSYAISWVRQAPGQGLEWMGGIIPIFGTANYAQKFQGRVTITADESTSTAYMELSSLRSEDTAVYYCARDQGYYYGSGGLDYWGQGTLVTVSS
VL 1: DIQMTQSPSSLSASVGDRVTITCRASQSISSYLNWYQQKPGKAPKLLIYAASSLQSGVPSRFSGSGSGTDFTLTISSLQPEDFATYYCLQDYNYPLTFGGGTKVEIK
VH 2: MAQVQLVQSGAEVKKPGASVKVSCKASGYTFTSYGISWVRQAPGQGLEWMGWISAYNGNTNYAQKLQGRVTMTTDTSTSTAYMELRSLRSDDTAVYYCARGVAAALSYWGQGTLVTVSS
VL 2: QSALTQPASVSGSPGQSITISCTGTSSDVGAYNYVSWYQQHPGKAPKLMIYEVTKRPSGVPDRFSGSKSGNTASLTISGLQAEDEADYYCISFTASSTWAFGGGTKLTVLG
notes: Heterodimer of two scFv-Fc chains (human IgG1 Fc, hinge to CH3) made by knobs-into-hole engineering: T366Y in the CH3 of one monomer and Y407T in the other; also called BsAb; bispecific heterodimeric antibody
For the molecule B2, the binding result in test [3] is “binds”.

B3: EpoR antibody V-1 (scFv-Fc homodimer) (Fc fusion)
VH: MAQVQLVQSGAEVKKPGSSVKVSCKASGGTFSSYAISWVRQAPGQGLEWMGGIIPIFGTANYAQKFQGRVTITADESTSTAYMELSSLRSEDTAVYYCARDQGYYYGSGGLDYWGQGTLVTVSS
VL: DIQMTQSPSSLSASVGDRVTITCRASQSISSYLNWYQQKPGKAPKLLIYAASSLQSGVPSRFSGSGSGTDFTLTISSLQPEDFATYYCLQDYNYPLTFGGGTKVEIK
B3 gave a Kd in test [4] of 26 nM.

B4: EpoR antibody V-3 (scFv-Fc homodimer) (Fc fusion)
VH: MAQVQLVQSGAEVKKPGASVKVSCKASGYTFTSYGISWVRQAPGQGLEWMGWISAYNGNTNYAQKLQGRVTMTTDTSTSTAYMELRSLRSDDTAVYYCARGVAAALSYWGQGTLVTVSS
VL: QSALTQPASVSGSPGQSITISCTGTSSDVGAYNYVSWYQQHPGKAPKLMIYEVTKRPSGVPDRFSGSKSGNTASLTISGLQAEDEADYYCISFTASSTWAFGGGTKLTVLG
In turn, B4 yielded an equilibrium dissociation constant (Kd) in test [5] of 45 nM.

Source of the values: patent US20180002425A1 (Scripps Research, published 2018).
